# Source: paper PMC7480041 (bioRxiv, 2020)
# T1: recombinant HuCoV-NL63 N protein (100–377) (HuCoV-NL63, UniProt Q6Q1R8 100-377)
# T1 sequence: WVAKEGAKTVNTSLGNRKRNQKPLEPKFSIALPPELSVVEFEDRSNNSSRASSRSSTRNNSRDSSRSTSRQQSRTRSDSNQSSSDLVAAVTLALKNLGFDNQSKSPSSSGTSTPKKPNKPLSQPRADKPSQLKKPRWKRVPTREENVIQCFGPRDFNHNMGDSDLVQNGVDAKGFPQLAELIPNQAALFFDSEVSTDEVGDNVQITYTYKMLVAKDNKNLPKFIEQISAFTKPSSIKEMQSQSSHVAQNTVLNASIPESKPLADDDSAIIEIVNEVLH
# B1: mBG67 (antibody, V domains shown)
# VH: EVQLVESGGGLVQPGGSLKLSCAASGFTFSNYGMSWVRQTPDKRLELVATINRNGGSTYYLDSVKVRFTISRDNAKSTLFLQLSSLKSDDTAMYYCARIYDFDEDYFDVWGAGTTVTVSS
# VL: QIVLTQSPAIMSASLGERVTMTCTASSSVSSSYLHWYQQKPGSSPKLWIYSTSNLASGVPARFSGSGSGTSYSLTISSMEAEDAATYYCLQYHRSPWTFGGGTKLEIK
# B2: mBG17 (antibody, V domains shown)
# VH: EVKLEESGGGLVQPGGSMKFSCVASGFTFSDYWMNWVRQSPDKGLEWVAEIRLKSNNYATHYAASVKGRFTISRDDSKSSVYLQMNNLRAEDSGIYYCTRSAMDYWGQGTSVTVSS
# VL: DIVMSQSPSSLAVSVGEKITMSCKSSQSLLYTSDQKNYLAWFQQKPGQSPKLLIFWASTRDSGVPDRFTGSGSGTDFTLTISSVKAEDLAVYYCQQFYNYPRTFGGGTKLEIK
# B3: mBG21 (antibody, V domains shown)
# VH: QIQLVQSGPELKKPGETVKISCKASGYTFTDYSMHWVKQAPGKGSKWMGWINTETGEPTYADDFKGRFAFSLETSASTAYLQINNLKNEDTATYFCALRRWGQGTLVTVSS
# VL: IVMTQTPKFLLVSAGDRVTITCKASQSVSNDVAWFQQKPGQSPKKLLIYFASNRYTGVPDRFTGSGYGTDFTFTITTVQAEDLAVYFCQQDYSSPWTFGGGTKLEIK
# B4: mBG22 (antibody, V domains shown)
# VH: QIQLVQSGPELKKPGETVKISCKASGYTFTDYSMHWVKQAPGKGSKWMGWINTETGEPTYADDFKGRFAFSLETSASTAYLQINNLKNEDTATYFCALRRWGQGTLVTVSA
# VL: IVMTQTPKFLLVSAGDRVTITCKASQSVSNDVAWFQQKPGQSPKLLIYFASNRYTGVPDRFTGSGYGTDFTFTITTVQAEDLAVYFCQQDYSSPWTFGGGTKLEIK
# Tests used:
# Experiment in all cases: ELISA
# [1] = target: recombinant SARS-CoV N protein (133–422) (SARS-CoV, UniProt P59595 133-422)
# [2] = target: T1, recombinant HuCoV-NL63 N protein …
# [3] = target: recombinant SARS-CoV N protein (133–422) (SARS-CoV, UniProt P59595)
# [4] = target: recombinant HuCoV-NL63 N protein (100–377) (HuCoV-NL63, UniProt Q6Q1R8)
# Sequence of recombinant SARS-CoV N protein (133–422) (SARS-CoV, UniProt P59595 133-422) (P59595 133-422): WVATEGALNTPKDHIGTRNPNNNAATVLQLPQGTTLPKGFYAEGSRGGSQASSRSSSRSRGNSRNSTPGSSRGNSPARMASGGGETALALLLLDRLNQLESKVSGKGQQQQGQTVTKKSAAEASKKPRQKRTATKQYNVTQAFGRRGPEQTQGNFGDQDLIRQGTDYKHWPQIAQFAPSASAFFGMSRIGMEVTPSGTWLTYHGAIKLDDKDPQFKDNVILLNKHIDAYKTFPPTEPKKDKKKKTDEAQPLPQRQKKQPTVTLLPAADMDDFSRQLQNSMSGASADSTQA
# Sequence of recombinant SARS-CoV N protein (133–422) (SARS-CoV, UniProt P59595) (P59595 133-422): as above
binder,measurement,setting,value
B1,corrected average ELISA signal,[1],0.39
B2,corrected average ELISA signal,[2],0.54
same,corrected average ELISA signal,[1],1.39
B3,corrected average ELISA signal,[3],1.49
same,corrected average ELISA signal,[4],0.47
B4,corrected average ELISA signal,[2],0.51
same,corrected average ELISA signal,[1],0.76
